Data from the supplement of paper PMC10065799, “High-throughput profiling of sequence recognition by tyrosine kinases and SH2 domains using bacterial peptide display” (eLife, 2023).

Key:
SHP2-C SH2 = experiment: SH2 binding enrichment of the phosphorylated peptide, bacterial display (enrichment ratio); higher = better substrate or ligand; peptides without Tyr show the background
Grb2 SH2 = Grb2 SH2 (UniProt P62993); experiment: as above
c-Src SH2 = experiment: as above
Jak2 = Jak2 (UniProt O60674); experiment: phosphorylation enrichment, bacterial display (enrichment ratio); higher = better substrate or ligand; peptides without Tyr show the background
Fer (mouse) = experiment: as above
FGFR1 = FGFR1 (UniProt P11362); experiment: as above
FGFR3 = FGFR3 (UniProt P22607); experiment: as above
Hck = Hck (UniProt P08631); experiment: as above
Hck, sequence (P08631 whole entry, looked up): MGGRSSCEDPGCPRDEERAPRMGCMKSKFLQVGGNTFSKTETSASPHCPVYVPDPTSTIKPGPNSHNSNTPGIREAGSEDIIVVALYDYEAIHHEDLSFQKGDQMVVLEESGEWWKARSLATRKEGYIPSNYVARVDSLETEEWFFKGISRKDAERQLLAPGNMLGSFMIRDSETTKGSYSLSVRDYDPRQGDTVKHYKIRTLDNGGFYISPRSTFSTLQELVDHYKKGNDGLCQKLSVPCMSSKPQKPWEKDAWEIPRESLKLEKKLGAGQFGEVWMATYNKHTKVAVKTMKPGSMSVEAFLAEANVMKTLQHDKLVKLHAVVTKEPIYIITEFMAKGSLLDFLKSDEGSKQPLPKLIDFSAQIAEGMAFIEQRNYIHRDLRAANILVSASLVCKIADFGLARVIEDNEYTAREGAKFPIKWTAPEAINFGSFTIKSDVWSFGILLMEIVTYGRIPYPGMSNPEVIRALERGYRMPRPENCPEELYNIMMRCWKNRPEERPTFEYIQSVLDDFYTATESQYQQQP

Fyn = Fyn (UniProt P06241); experiment: as above
Fyn, sequence (P06241 whole entry, looked up): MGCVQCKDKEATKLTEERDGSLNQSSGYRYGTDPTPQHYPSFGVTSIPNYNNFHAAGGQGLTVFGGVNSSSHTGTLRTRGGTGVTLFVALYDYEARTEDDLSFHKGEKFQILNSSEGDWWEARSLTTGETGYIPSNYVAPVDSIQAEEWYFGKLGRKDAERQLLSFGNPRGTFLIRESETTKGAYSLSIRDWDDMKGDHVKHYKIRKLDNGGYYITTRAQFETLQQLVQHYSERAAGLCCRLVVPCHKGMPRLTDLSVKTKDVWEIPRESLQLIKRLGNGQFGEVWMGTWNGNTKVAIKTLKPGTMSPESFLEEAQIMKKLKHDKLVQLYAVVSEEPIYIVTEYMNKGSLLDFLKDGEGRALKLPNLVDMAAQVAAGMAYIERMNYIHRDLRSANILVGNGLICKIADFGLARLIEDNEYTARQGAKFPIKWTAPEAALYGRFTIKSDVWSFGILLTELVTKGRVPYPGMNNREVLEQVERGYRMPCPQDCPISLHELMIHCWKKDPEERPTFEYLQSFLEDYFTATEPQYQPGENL

c-Src = experiment: as above
c-Abl (mouse) = experiment: as above
EPHB2 = EPHB2 (UniProt P29323); experiment: as above
EPHB2, sequence (P29323 whole entry, looked up): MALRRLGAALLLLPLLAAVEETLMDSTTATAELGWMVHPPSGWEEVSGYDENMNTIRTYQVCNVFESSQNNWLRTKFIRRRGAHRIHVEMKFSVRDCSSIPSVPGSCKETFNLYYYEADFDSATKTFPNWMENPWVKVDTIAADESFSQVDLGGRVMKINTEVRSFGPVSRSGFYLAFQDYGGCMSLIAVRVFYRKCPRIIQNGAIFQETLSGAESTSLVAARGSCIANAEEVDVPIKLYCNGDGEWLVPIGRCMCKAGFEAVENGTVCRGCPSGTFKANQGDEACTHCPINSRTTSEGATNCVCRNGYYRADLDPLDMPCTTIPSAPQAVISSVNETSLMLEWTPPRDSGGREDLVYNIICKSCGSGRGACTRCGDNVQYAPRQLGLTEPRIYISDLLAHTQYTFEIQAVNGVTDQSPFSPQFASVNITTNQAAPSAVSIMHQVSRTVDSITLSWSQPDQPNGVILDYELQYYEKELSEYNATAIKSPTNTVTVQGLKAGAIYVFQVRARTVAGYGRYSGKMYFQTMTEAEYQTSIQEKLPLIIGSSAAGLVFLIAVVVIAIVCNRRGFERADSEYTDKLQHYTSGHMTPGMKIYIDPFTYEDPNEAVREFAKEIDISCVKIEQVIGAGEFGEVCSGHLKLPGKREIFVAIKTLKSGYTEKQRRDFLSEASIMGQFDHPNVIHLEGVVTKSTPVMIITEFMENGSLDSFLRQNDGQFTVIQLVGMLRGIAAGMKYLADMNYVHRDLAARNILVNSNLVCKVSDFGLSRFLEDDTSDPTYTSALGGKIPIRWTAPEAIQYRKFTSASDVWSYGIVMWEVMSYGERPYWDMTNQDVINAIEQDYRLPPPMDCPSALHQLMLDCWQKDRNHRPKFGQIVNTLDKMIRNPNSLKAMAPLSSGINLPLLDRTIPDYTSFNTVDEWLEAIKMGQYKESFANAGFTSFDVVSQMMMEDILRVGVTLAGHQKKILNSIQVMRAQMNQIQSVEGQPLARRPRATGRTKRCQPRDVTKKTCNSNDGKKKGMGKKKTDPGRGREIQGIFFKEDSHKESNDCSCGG

AncSZ = experiment: as above
MERTK = MERTK (UniProt Q12866); experiment: as above
MERTK, sequence (Q12866 whole entry, looked up): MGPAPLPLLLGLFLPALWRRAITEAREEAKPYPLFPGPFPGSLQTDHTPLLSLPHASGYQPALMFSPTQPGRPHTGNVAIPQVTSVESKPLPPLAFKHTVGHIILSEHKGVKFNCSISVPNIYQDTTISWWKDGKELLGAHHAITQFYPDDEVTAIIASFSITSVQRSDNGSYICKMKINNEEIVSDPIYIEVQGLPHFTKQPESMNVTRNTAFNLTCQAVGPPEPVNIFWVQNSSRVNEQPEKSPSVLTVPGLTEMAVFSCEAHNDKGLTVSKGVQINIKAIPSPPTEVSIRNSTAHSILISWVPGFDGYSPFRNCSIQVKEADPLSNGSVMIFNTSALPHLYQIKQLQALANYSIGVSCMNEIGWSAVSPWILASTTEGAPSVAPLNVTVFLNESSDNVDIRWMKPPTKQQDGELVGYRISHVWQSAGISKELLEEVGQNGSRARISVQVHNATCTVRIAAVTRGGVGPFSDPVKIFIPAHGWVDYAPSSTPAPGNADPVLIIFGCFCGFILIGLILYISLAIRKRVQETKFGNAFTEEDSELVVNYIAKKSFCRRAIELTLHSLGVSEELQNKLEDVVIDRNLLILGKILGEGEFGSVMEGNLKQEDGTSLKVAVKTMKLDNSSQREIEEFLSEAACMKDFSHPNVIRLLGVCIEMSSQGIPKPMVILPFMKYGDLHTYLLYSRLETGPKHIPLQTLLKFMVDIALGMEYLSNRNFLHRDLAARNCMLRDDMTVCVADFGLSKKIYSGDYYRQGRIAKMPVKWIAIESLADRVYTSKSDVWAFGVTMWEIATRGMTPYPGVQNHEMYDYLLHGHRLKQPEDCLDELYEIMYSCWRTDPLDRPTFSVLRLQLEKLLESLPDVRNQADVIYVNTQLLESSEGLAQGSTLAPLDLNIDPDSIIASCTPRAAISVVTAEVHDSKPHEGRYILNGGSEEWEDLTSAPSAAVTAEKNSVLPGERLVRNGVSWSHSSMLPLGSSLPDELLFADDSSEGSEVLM

EPHB1 = EPHB1 (UniProt P54762); experiment: as above
EPHB1, sequence (P54762 whole entry, looked up): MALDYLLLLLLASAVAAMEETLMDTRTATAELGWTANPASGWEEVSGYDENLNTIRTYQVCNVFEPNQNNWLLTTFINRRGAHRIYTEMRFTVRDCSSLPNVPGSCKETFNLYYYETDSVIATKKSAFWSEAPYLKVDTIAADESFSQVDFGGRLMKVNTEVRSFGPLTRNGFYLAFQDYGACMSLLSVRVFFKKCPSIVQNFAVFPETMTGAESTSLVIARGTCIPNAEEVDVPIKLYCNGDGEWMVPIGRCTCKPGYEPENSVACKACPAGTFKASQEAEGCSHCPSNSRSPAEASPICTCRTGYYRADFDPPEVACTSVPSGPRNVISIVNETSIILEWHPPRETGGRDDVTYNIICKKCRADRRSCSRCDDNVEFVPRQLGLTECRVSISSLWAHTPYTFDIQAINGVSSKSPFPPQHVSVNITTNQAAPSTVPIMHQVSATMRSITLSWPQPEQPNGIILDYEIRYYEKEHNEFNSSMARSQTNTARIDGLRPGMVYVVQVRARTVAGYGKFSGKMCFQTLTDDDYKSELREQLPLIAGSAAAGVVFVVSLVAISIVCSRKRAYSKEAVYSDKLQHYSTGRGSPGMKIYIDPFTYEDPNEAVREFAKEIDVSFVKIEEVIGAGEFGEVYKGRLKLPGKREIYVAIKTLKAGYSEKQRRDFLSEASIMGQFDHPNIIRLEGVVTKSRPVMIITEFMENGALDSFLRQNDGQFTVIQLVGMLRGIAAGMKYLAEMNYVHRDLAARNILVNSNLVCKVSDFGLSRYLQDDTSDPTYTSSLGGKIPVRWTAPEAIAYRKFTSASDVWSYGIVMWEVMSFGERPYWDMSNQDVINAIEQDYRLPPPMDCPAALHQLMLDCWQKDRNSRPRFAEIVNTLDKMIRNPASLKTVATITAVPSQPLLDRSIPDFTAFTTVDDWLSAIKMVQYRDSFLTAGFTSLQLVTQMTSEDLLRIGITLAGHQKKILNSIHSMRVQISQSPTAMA

Fes = Fes (UniProt P07332); experiment: as above
Fes, sequence (P07332 whole entry, looked up, the tested form may be a part): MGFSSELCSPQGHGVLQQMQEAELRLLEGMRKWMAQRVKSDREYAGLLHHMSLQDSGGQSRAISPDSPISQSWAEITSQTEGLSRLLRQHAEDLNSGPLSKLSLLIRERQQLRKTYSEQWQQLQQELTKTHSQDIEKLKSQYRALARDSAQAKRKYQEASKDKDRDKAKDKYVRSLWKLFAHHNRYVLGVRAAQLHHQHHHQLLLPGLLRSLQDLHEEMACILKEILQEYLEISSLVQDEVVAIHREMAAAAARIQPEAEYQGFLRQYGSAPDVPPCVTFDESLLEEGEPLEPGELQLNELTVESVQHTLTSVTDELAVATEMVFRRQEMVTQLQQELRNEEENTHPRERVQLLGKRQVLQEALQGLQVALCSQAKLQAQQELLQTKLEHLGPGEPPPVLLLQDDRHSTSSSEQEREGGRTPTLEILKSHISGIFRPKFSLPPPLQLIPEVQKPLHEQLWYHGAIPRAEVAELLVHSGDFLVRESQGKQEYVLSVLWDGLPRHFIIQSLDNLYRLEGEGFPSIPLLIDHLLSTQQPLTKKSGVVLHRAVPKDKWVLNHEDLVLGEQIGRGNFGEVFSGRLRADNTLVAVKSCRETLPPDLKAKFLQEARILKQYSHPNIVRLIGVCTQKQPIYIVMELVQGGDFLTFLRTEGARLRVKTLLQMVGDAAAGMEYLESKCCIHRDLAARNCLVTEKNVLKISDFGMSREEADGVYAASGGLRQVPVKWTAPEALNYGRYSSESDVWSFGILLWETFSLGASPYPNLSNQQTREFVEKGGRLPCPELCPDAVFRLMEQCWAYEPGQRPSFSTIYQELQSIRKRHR
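Throughout, for SH2 binding enrichment of the phosphorylated peptide, bacterial display: peptide library displayed on the E. coli surface as eCPX fusions, selected cells deep-sequenced, score is each peptide's frequency after selection divided by its frequency in the input.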
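Throughout, for phosphorylation enrichment, bacterial display: 11-residue human phosphosite peptides and single-mutation variants displayed on the E. coli surface, counted by deep sequencing, each peptide's frequency after selection divided by its frequency in the unselected input library; frequency after pTyr selection over input frequency; kinase dosed for 20-30% of maximal phosphorylation in three min.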

Row | SH2 binding enrichment (SHP2-C SH2) | SH2 binding enrichment (Grb2 SH2) | SH2 binding enrichment (c-Src SH2) | Sequence | phosphorylation enrichment (Jak2) | phosphorylation enrichment (Fer (mouse)) | phosphorylation enrichment (FGFR1) | phosphorylation enrichment (FGFR3) | phosphorylation enrichment (Hck) | phosphorylation enrichment (Fyn) | phosphorylation enrichment (c-Src) | phosphorylation enrichment (c-Abl (mouse)) | phosphorylation enrichment (EPHB2) | phosphorylation enrichment (AncSZ) | phosphorylation enrichment (MERTK) | phosphorylation enrichment (EPHB1) | phosphorylation enrichment (Fes)
1 | 0.981 | 0.988 | 10.1 | VVRSLYEDLED [VHL_Y185_I180V] | 1.21 | 1.24 | 0.556 | 0.792 | 0.573 | 0.587 | 0.544 | 0.835 | 0.984 | 1.26 | 0.525 | 0.711 | 1.24
2 | 0.6 | 0.718 | 0.563 | WAFNLYDINKD [KCNIP3_Y174] | 1.17 | 1.82 | 0.541 | 0.763 | 2.65 | 1.92 | 1.78 | 0.91 | 1.64 | 1.43 | 1.3 | 1.27 | 1.45
3 | 0.589 | 0.98 | 0.811 | WEQELYSQLVY [WAS_Y102] | 1.35 | 15.7 | 8.38 | 7.23 | 8.84 | 9.39 | 7.33 | 1.55 | 16 | 2.3 | 9.2 | 11.8 | 2.69
4 | 0.488 | 0.841 | 0.499 | WPLKWYVPECI [ZAP70_Y506_A507V] | 1.02 | 0.44 | 0.496 | 0.804 | 0.572 | 0.428 | 0.387 | 0.757 | 0.618 | 1.06 | 0.382 | 0.688 | 1.18
5 | 0.894 | 0.823 | 1.12 | YAKSVYWENTL [NUP107_Y296] | 0.821 | 0.492 | 0.49 | 0.619 | 0.674 | 0.61 | 0.871 | 0.728 | 0.485 | 1.02 | 0.526 | 0.584 | 0.967
6 | 0.34 | 0.649 | 0.419 | YASALYRQRRS [FGF11_Y162] | 0.513 | 0.431 | 0.507 | 0.58 | 0.548 | 0.687 | 0.659 | 0.703 | 0.62 | 0.613 | 0.535 | 0.433 | 0.632
7 | 0.927 | 1.2 | 1.64 | YCRHNYGVVES [HLA-DRB1_Y112] | 0.681 | 0.41 | 0.568 | 0.527 | 0.458 | 0.385 | 0.484 | 0.675 | 2.87 | 0.557 | 0.592 | 1.52 | 0.798
8 | 0.46 | 0.86 | 2.38 | YEDALYTVLHR [UNC13D_Y61] | 1.7 | 12.9 | 3.68 | 3.1 | 9.13 | 8.38 | 7.21 | 11.5 | 15.9 | 3.84 | 9.59 | 16.6 | 2.06
9 | 1.09 | 1.07 | 0.707 | YGGLRYGYGVL [KRTAP20-2_Y13] | 0.658 | 0.448 | 0.559 | 0.518 | 1.42 | 1.25 | 1.64 | 0.536 | 0.608 | 0.671 | 0.497 | 0.415 | 0.741
10 | 1.5 | 1.27 | 0.814 | YKPGFYNLKEK [LAMA1_Y490_C485Y] | 0.891 | 0.432 | 0.352 | 0.402 | 0.397 | 0.421 | 0.491 | 0.971 | 0.431 | 0.659 | 0.366 | 0.343 | 0.628

The remaining lines, values behind:

Row | Sequence | SH2 binding enrichment (SHP2-C SH2) | SH2 binding enrichment (Grb2 SH2) | SH2 binding enrichment (c-Src SH2) | phosphorylation enrichment (Jak2) | phosphorylation enrichment (Fer (mouse)) | phosphorylation enrichment (FGFR1) | phosphorylation enrichment (FGFR3) | phosphorylation enrichment (Hck) | phosphorylation enrichment (Fyn) | phosphorylation enrichment (c-Src) | phosphorylation enrichment (c-Abl (mouse)) | phosphorylation enrichment (EPHB2) | phosphorylation enrichment (AncSZ) | phosphorylation enrichment (MERTK) | phosphorylation enrichment (EPHB1) | phosphorylation enrichment (Fes)
11 | VTSLKYSTSPF [BRIP1_Y916_YF] | 0.664 | 1.09 | 0.455 | 0.711 | 0.408 | 0.435 | 0.689 | 0.464 | 0.433 | 0.403 | 0.482 | 0.507 | 0.605 | 0.412 | 0.469 | 0.695
12 | WKEREYEVVRD [CPS1_Y634_I632R] | 0.67 | 0.954 | 6.04 | 0.949 | 0.573 | 0.554 | 0.684 | 0.586 | 0.599 | 0.506 | 0.594 | 2.29 | 1.26 | 0.478 | 1.36 | 1.12
13 | WQLEIYRASRP [ERCC4_Y594_R589W] | 0.546 | 0.717 | 0.599 | 0.911 | 0.471 | 0.375 | 0.702 | 0.491 | 0.492 | 0.45 | 0.997 | 0.628 | 1.27 | 0.521 | 0.567 | 1.22
14 | WQQQSYLFSGI [CTNNB1_Y30_D32Y_YF] | 0.882 | 1.02 | 0.641 | 0.972 | 0.398 | 0.473 | 0.57 | 0.44 | 0.454 | 0.467 | 0.765 | 0.57 | 0.977 | 0.414 | 0.461 | 0.928
15 | YAFQLYDLDRD [CHP2_Y123] | 2.55 | 0.879 | 1.58 | 0.969 | 1.12 | 1.89 | 1.55 | 1.73 | 2.66 | 3.19 | 0.768 | 0.765 | 1.24 | 2.83 | 1.69 | 1.17
16 | YDEYRYRSVIK [CFTR_Y517] | 0.606 | 0.788 | 1.25 | 1.16 | 0.529 | 0.435 | 0.67 | 1.14 | 1.76 | 2.15 | 1.05 | 0.589 | 1.04 | 0.706 | 0.584 | 0.973
17 | YGLQAYTKVKT [ALDH2_Y502_E504K] | 2.67 | 0.811 | 1.85 | 1.23 | 0.427 | 0.45 | 0.679 | 0.377 | 0.357 | 0.435 | 0.614 | 0.462 | 1.26 | 0.414 | 0.445 | 1.08
